From patent US20230086871A1 (UNIVERSITY OF FREIBURG, published 2023) come the findings set out here.

The data set concerns the molecule itself. Description: negative-stain transmission electron microscopy and 2D classification of purified His-SYMREM1 (self-assembly).

B1: His-SYMREM1 (purified, recombinant Medicago truncatula SYMREM1 protein) (other)
chain: MEESKNKQLELVDTLTPLPQSESEPREFSYFLEEKEPGNEGTSSSVVKQERVVSDHATSSVDQTTAAGTDTKDSVDRDAVLARVESQKRLALIKAWEENEKTKVENRAYKMQSAVDLWEDDKKASIEAKFKGIEVKLDRKKSEYVEVMQNKIGEIHKSAEEKKAMIEAQKGEEILKVEETAAKFRTRGYQPRRLLGCFSGLRFFS
notes: also called Symbiotic Remorin 1; recombinant SYMREM1; not shown: N-terminal His tag and linker from the pDEST17 Gateway vector
B1: the binding result is listed as “binds”.
